According to patent US7910100B2, “Antibodies directed to the mammalian EAG1 ion channel protein” (Max-Planck-Gesellschaft zur Forderung der Wissen, priority 2004, dated 2011):

T1: Eag1 in rat brain sections (Rattus norvegicus, UniProt Q63472)
T1 construct: from tissue; host or cells: brain (cerebellum, hippocampus) of postnatal-day 21 Sprague Dawley rats
T1 sequence (Q63472 1-962): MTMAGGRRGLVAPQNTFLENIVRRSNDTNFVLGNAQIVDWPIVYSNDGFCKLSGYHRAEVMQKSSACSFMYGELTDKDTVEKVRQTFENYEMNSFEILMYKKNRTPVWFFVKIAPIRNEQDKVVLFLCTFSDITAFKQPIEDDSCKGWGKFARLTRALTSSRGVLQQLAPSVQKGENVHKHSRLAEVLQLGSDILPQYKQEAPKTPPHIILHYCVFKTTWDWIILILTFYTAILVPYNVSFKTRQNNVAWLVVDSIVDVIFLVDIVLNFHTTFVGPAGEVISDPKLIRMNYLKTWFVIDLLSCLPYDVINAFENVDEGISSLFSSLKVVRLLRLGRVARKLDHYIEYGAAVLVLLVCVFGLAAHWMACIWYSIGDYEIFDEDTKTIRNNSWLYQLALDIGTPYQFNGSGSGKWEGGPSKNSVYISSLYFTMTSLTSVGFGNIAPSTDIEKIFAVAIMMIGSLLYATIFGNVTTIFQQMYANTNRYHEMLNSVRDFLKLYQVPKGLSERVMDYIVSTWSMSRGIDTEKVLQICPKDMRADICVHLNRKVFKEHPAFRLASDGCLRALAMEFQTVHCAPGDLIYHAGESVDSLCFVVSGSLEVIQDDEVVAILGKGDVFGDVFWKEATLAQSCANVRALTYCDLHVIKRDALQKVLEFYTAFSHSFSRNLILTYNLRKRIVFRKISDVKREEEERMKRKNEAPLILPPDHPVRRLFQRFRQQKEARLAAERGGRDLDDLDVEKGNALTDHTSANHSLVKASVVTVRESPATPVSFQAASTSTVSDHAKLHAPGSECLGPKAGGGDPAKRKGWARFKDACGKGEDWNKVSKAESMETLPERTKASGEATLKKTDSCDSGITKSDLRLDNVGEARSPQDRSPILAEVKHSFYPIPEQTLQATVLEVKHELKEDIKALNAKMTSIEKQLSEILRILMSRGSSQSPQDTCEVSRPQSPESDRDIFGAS

B1: ImAb4: mouse monoclonal anti-Eag1 antibody, IgG2b kappa; light chain SEQ ID NO: 2, heavy chain SEQ ID NO: 4 (antibody, listed as Mus musculus)
heavy: MRVLILLWLFTAFPGILSDVQLQESGPGLVKPSQSLSLTCTVTGYSITSDYAWNWIRQFPGNKLEWMGYISYSGSTIYNPSLKSRISITRDTSKNQFFLQLNSVTTEDTATYYCARFGNYGNTLNYWGQGTSVTVSSAKTTPPSVYPLAPGCGDTTGSSVTLGCLVKGYFPESVTVTWNSGSLSSSVHTFPALLQSGLYTMSSSVTVPSSTWPSQTVTCSVAHPASSTTVDKKLEPSGPISTINPCPPCKECHKCPAPNLEGGPSVFIFPPNIKDVLMISLTPKVTCVVVDVSEDDPDVQISWFVNNVEVHTAQTQTHREDYNSTIRVVSTLPIQHQDWMSGKEFKCKVNNKDLPSPIERTISKIKGLVRAPQVYILPPPAEQLSRKDVSLTCLVVGFNPGDISVEWTSNGHTEENYKDTAPVLDSDGSYFIYSKLNMKTSKWEKTDSFSCNVRHEGLKNYYLKKTISRSPGK
light: MKLPVRLLVLMFWIPASSSDVVMTQTPLSLPVSLGDQASISCRSSQSLVHSNGNTYLHWYLQKPGQSPKLLIYKVSNRFSGVPDRFSGSGSGTDFTLKISRVEAEDLGVYFCSQSTHVPPTFGGGTKLEIKRADAAPTVSIFPPSSEQLTSGGASVVCFLNNFYPKDINVKWKIDGSERQNGVLNSWTDQDSKDSTYSMSSTLTLTKDEYERHNSYTCEATHKTSTSPIVKSFNRNEC
B2: ImAb1: mouse monoclonal anti-Eag1 antibody; VL SEQ ID NO: 43, VH SEQ ID NO: 44; binds C-terminus of Eag1 (antibody, listed as Mus musculus)
heavy: MNFGFSLIFLVLVLKGVQCEVKLVESGGGLVKPGGSLKLSCAASGFTFSNYAMSWVRQTPEKRLEWVASISSDGDTYFPDNVKGRFTISRENAGNILFLQMSSLRSEDTAMYYCARGFMITFWGQGTLVTVSAAKTTPPSVYPLAPGCGDTTGSSVTLGCLVKGYFPESVTVTWNSGSLSSSVHTFPALLQSGLYTMSSSVTVPSSTWPSQTVTCSVAHPASSTTVD
light: MDMRAPAQFFGILLLWFPGIRCDIKMTQSPSSMYASLGERVTITCKASQDIKSYLSWYQQKPWKSPKILIYYATSLADGVPSRISGSGSGQDYSLTISSLESDDTATYYCLQHGESPYTFGGGTKLEIKRADAAPTVSIFPPSSEQLTSGGASVVCFLNNFYPKDINVKWKIDGSERQNGVLNSWTDQDSKDSTYSMSSTLTLTKDEYERHNSYTCEATHKTSTSPIVKSFNRNEC

How the values were obtained:
[1] = system: IPC-298 melanoma cells; assay: Soft agar assay IPC-298 with secondary immunotoxin Mab-ZAP; assay type: cell-based, human; settings: 2.5 ng antibody with 100 pg Mab-ZAP, 10 days
Description: For comparison Mab-ZAP was pre-incubated with 2.5 ng control IgG. After 30 min pre-incubation, 2000 IPC-298 cells in OptiMEM with 20 mM KCl were added and further incubated at 37° C. for 30 min. IPC-298 cells, pre-incubated with immunotoxin-labelled anti-EAG1 antibody, were resuspended in 50 μl/well 0.25% Difco noble agar containing OptiMEM with 0.5% FCS and plated on 50 μl/well 0.5% agarose underlayer containing OptiMEM with 0.5% FCS in quadruplicates. Additionally, 50 μl/well 0.25% feeding agar containing OptiMEM with 0.5% FCS was plated. Colonies were allowed to form for 10 days and were stained with 50 μl MTT (1 mg/ml in PBS) for 1.5 hours. Wells were scanned using an Epson scanner and colonies were counted using the Scion Image software.

[2] = biological target: T1, Eag1 in rat brain sections; assay: Immunohistochemistry of rat brain sections (cerebellum, hippocampus); assay type: binding; settings: ImAb1 4 μg/ml, ImAb4 2 μg/ml, overnight 4° C.
Description: Cross-reactivity of anti-Eag1 antibodies of the invention were further analysed by Immunohistochemistry studies of rat brain sections of the cerebellum and the hippocampus. For the IHC, two postnatal-day 21 Sprague Dawley rats were anesthetized with a mixture of ketamine HCl (Ketaset; 100 mg/ml; Fort Dodge Laboratories, Inc., U.S.A.) and xylazine (Rompun; 20 mg/ml; Mile, Inc., U.S.A.) at 0.1 ml/100 g body weight. The animals were transcardially perfused with a fixative consisting of 4% p-formaldehyde in 0.12 M phosphate buffer (pH 7.2). After perfusion, brains were removed, fixed for an additional hour at 4° C., rinsed three times with PBS and stored overnight at 4° C. Coronal and sagital sections (40-50 μm) were cut in cold PBS using a vibratome (Leica, Vienna, Austria). Slices were incubated for 1 h with 10% normal goat serum in PBS, then with anti-Eag1 antibodies ImAb1 (4 μg/ml) and ImAb4 (2 μg/ml) in PBS overnight at 4° C. and processed using the avidin/biotin-peroxidase system (Vectastain kit, Vector Laboratories, Burlingame, Calif.). Antibody binding was visualized using 3′-3-diaminobenzidine tetrahydrochloride (DAB; DAB substrate kit for peroxidase, Vector Laboratories). […] Sections were analysed with a Zeiss Axiophot microscope.

[3] = system: Eag1 overexpressing CHO K1 cells; assay: Internalization of Cy3-labelled antibodies, immunofluorescence on living cells; assay type: cell-based; settings: Cy3-labelled antibody; for binding to Eag1 antigen on living cells: overnight; for internalization into cells: within 24 h
Description: In order to analyse the internalization properties of the anti-Eag1 antibodies of invention, CHO cells were grown on coverslips and incubated in normal medium (Ham's F12, 10% FCS) overnight (37 C, 5% CO2) with anti-Eag1 antibodies ImAb1 and ImAb4 directly labeled with Cy3 (100 μg). Cultures were thereafter incubated with app. 2 μg/ml Hoechst 33342 for 10 min.

[4] = system: Eag1 peptides (pore domain / CAD domain of immunogen); assay: Epitope mapping on SPOT cellulose membrane with 76 overlapping peptides; assay type: binding; settings: 76 overlapping 13 mer peptides, shift 2 aa; antibody diluted 1:2000

Molecule	inhibition of anchorage independent cell growth [1]	cross-reactivity with rat (IHC staining) [2]	binding to Eag1 antigen on living cells [3]	internalization into cells [3]	peptide spots bound (epitope) [4]
B1	inhibits anchorage independent tumor cell growth	cross-reacts with other mammalian species such as rat	bind to Eag1 antigen on living cells expressing the antigen	are internalized into the cells	bound at spots 3-8
B2		cross-reacts with other mammalian species such as rat	bind to Eag1 antigen on living cells expressing the antigen	are internalized into the cells	bound weakly to peptides 21-24
